Measurements from PMC4321713.

Target: Cnidoin fragment (residues 150 to 419) with N-terminal ybbR tag and C-terminal type I dockerin-histidine tag (Hydra magnipapillata | not stated)
Test: AFM single molecule force spectroscopy; Cnidoin-dockerin construct attached covalently by its ybbR tag to a coenzyme A glass surface; CBM A2C-Cohesin on the cantilever tip; 25 mM Tris, 72 mM NaCl, pH 7.2, 1 mM CaCl2, 10 mM DTT; pulling speeds 200 nm/s to 6,400 nm/s

## CBM A2C-Cohesin from Clostridium thermocellum (domain or fragment)
  rupture force: 100 pN
